Laboratory results taken from publication PMC2756588.

What follows are binders tested against T1, Sla1-3, P32790 (assay: SPOT array). Conditions: median of control spots 5475.
T1 sequence (P32790 344-424, looked up): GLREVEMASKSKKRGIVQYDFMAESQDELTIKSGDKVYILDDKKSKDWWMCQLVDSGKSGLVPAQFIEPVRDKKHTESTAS
Binder MFLISPPASPPPEFD has an SPOT intensity of 0.
With DLPLPDLPPEPPTEL the SPOT intensity was 0.
Work on VPPPMQPPPIESSNL yielded an SPOT intensity of 0.

What follows are binders tested against T2, Bud14, P27637 (assay: SPOT array). Conditions: median of control spots 956.
T2 sequence (P27637 247-328, looked up): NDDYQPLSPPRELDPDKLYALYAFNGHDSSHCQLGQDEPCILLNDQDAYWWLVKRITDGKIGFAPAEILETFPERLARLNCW
Binder MFLISPPASPPPEFD has an SPOT intensity of 0.
With DLPLPDLPPEPPTEL the SPOT intensity was 0.
Binder VPPPMQPPPIESSNL has an SPOT intensity of 0.

What follows are binders tested against T3, Bzz1-1, P38822 (assay: SPOT array). Conditions: median of control spots 4446.
T3 sequence (P38822 478-572, looked up): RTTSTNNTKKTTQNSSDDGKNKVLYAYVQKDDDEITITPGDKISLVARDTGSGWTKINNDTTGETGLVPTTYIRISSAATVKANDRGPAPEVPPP
Binder MFLISPPASPPPEFD has an SPOT intensity of 0.
DLPLPDLPPEPPTEL showed an SPOT intensity of 0.
For VPPPMQPPPIESSNL, the SPOT intensity was 0.

What follows are binders tested against T4, Boi1, P38041 (assay: SPOT array). Conditions: median of control spots 1162.
T4 sequence (P38041 1-86, looked up): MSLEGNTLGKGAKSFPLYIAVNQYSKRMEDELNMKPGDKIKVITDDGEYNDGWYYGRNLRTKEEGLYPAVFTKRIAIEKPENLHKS
MFLISPPASPPPEFD gave an SPOT intensity of 2.
DLPLPDLPPEPPTEL gave an SPOT intensity of 2.
With VPPPMQPPPIESSNL the SPOT intensity was 1.

These binders were tested against GST (assay: SPOT array). Conditions: median of control spots 978.
MFLISPPASPPPEFD gave an SPOT intensity of 0.
With DLPLPDLPPEPPTEL the SPOT intensity was 1.
With VPPPMQPPPIESSNL the SPOT intensity was 0.

What follows are binders tested against Bem1-2, P29366 (assay: SPOT array). Conditions: median of control spots 4347.
Chain of Bem1-2, P29366 (P29366 139-227): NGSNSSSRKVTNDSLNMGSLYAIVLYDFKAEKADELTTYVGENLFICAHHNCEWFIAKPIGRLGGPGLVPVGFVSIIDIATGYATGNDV
MFLISPPASPPPEFD showed an SPOT intensity of 0.
Work on DLPLPDLPPEPPTEL yielded an SPOT intensity of 0.
In the case of VPPPMQPPPIESSNL, the SPOT intensity is reported as 0.

Each binder was assayed against T5, Nbp2, Q12163 (assay: SPOT array). Conditions: median of control spots 357.
T5 sequence (Q12163 103-180, looked up): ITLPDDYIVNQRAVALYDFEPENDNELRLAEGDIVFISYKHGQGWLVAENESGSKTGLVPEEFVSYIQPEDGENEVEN
MFLISPPASPPPEFD showed an SPOT intensity of 0.
In the case of DLPLPDLPPEPPTEL, the SPOT intensity is reported as 0.
VPPPMQPPPIESSNL gave an SPOT intensity of 6.

The binders below were run against T6, Hse1, P38753 (assay: SPOT array). Conditions: median of control spots 1727.
T6 sequence (P38753 208-285, looked up): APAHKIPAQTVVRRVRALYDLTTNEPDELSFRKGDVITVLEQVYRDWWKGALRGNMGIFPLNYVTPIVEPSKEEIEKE
Work on MFLISPPASPPPEFD yielded an SPOT intensity of 0.
For DLPLPDLPPEPPTEL, the SPOT intensity was 0.
In the case of VPPPMQPPPIESSNL, the SPOT intensity is reported as 0.

What follows are binders tested against T7, Boi2, P39969 (assay: SPOT array). Conditions: median of control spots 1161.
T7 sequence (P39969 32-116, looked up): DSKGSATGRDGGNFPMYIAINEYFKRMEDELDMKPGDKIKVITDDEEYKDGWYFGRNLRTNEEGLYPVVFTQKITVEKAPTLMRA
Binder MFLISPPASPPPEFD has an SPOT intensity of 0.
For DLPLPDLPPEPPTEL, the SPOT intensity was 1.
Binder VPPPMQPPPIESSNL has an SPOT intensity of 0.

The binders below were run against T8, Cdc25, P04821 (assay: SPOT array). Conditions: median of control spots 969.
T8 sequence (P04821 50-136, looked up): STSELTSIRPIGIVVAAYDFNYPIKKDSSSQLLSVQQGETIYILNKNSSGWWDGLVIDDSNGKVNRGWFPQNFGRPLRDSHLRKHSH
MFLISPPASPPPEFD was tested, and the SPOT intensity was 2.
In the case of DLPLPDLPPEPPTEL, the SPOT intensity is reported as 2.
VPPPMQPPPIESSNL showed an SPOT intensity of 0.

These binders were tested against T9, Pin3, Q06449 (assay: SPOT array). Conditions: median of control spots 2171.
T9 sequence (Q06449 53-122, looked up): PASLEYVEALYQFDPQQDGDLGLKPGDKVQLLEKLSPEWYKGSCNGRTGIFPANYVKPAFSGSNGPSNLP
MFLISPPASPPPEFD was tested, and the SPOT intensity was 65.
In the case of DLPLPDLPPEPPTEL, the SPOT intensity is reported as 0.
In the case of VPPPMQPPPIESSNL, the SPOT intensity is reported as 114.

These binders were tested against Rvs167, P39743 (assay: SPOT array). Conditions: median of control spots 2707.
Chain of Rvs167, P39743 (P39743 419-482): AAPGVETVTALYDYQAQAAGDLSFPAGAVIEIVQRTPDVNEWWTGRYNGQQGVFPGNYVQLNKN
With MFLISPPASPPPEFD the SPOT intensity was 0.
Binder DLPLPDLPPEPPTEL has an SPOT intensity of 0.
VPPPMQPPPIESSNL showed an SPOT intensity of 0.

These binders were tested against T10, Bbc1, P47068 (assay: SPOT array). Conditions: median of control spots 796.
T10 sequence (P47068 1-78, looked up): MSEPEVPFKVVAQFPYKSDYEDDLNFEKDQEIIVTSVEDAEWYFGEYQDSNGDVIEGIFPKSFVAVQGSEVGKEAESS
With MFLISPPASPPPEFD the SPOT intensity was 0.
DLPLPDLPPEPPTEL was tested, and the SPOT intensity was 0.
For VPPPMQPPPIESSNL, the SPOT intensity was 0.

The binders below were run against Bem1-1, P29366 (assay: SPOT array). Conditions: median of control spots 4282.
Chain of Bem1-1, P29366 (P29366 55-141): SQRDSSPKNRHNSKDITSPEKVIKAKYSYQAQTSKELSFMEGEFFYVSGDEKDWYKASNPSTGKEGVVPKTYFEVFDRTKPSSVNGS
MFLISPPASPPPEFD gave an SPOT intensity of 0.
Binder DLPLPDLPPEPPTEL has an SPOT intensity of 3.
VPPPMQPPPIESSNL gave an SPOT intensity of 0.

These binders were tested against T11, Myo5, Q04439 (assay: SPOT array). Conditions: median of control spots 471.
T11 sequence (Q04439 1072-1160, looked up): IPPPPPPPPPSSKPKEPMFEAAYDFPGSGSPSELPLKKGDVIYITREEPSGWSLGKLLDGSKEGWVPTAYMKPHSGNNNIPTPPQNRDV
Binder MFLISPPASPPPEFD has an SPOT intensity of 219.
Binder DLPLPDLPPEPPTEL has an SPOT intensity of 101.
In the case of VPPPMQPPPIESSNL, the SPOT intensity is reported as 167.

The binders below were run against T12, Bzz1-2, P38822 (assay: SPOT array). Conditions: median of control spots 4538.
T12 sequence (P38822 568-633, looked up): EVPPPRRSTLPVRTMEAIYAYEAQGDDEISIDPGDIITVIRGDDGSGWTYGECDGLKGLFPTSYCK
With MFLISPPASPPPEFD the SPOT intensity was 0.
DLPLPDLPPEPPTEL gave an SPOT intensity of 0.
In the case of VPPPMQPPPIESSNL, the SPOT intensity is reported as 0.

These binders were tested against T13, Sla1-2, P32790 (assay: SPOT array). Conditions: median of control spots 712.
T13 sequence (P32790 60-140, looked up): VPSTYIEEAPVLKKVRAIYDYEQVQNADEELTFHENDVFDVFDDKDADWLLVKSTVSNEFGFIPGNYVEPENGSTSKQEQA
MFLISPPASPPPEFD showed an SPOT intensity of 0.
DLPLPDLPPEPPTEL showed an SPOT intensity of 0.
Work on VPPPMQPPPIESSNL yielded an SPOT intensity of 2.

Each binder was assayed against T14, Lsb3, P43603 (assay: SPOT array). Conditions: median of control spots 406.
T14 sequence (P43603 385-451, looked up): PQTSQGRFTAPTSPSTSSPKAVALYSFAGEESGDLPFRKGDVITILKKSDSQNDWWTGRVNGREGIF
For MFLISPPASPPPEFD, the SPOT intensity was 0.
Binder DLPLPDLPPEPPTEL has an SPOT intensity of 0.
VPPPMQPPPIESSNL showed an SPOT intensity of 0.

The binders below were run against T15, Pex13, P80667 (assay: SPOT array). Conditions: median of control spots 1341.
T15 sequence (P80667 295-386, looked up): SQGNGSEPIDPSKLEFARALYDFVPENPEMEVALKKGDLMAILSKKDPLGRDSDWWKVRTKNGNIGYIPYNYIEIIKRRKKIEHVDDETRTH
With MFLISPPASPPPEFD the SPOT intensity was 12.
DLPLPDLPPEPPTEL gave an SPOT intensity of 0.
VPPPMQPPPIESSNL showed an SPOT intensity of 27.

What follows are binders tested against T16, Hof1, Q05080 (assay: SPOT array). Conditions: median of control spots 4086.
T16 sequence (Q05080 590-669, looked up): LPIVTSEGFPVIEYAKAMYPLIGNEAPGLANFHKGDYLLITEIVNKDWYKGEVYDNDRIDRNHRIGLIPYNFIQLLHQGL
Binder MFLISPPASPPPEFD has an SPOT intensity of 1.
Work on DLPLPDLPPEPPTEL yielded an SPOT intensity of 566.
VPPPMQPPPIESSNL was tested, and the SPOT intensity was 0.

The binders below were run against Sho1, P40073 (assay: SPOT array). Conditions: median of control spots 1148.
Chain of Sho1, P40073 (P40073 287-367): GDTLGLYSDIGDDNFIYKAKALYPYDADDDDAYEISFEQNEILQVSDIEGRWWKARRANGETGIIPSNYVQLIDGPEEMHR
Work on MFLISPPASPPPEFD yielded an SPOT intensity of 0.
Binder DLPLPDLPPEPPTEL has an SPOT intensity of 0.
In the case of VPPPMQPPPIESSNL, the SPOT intensity is reported as 0.

These binders were tested against T17, Lsb4, P32793 (assay: SPOT array). Conditions: median of control spots 397.
T17 sequence (P32793 402-468, looked up): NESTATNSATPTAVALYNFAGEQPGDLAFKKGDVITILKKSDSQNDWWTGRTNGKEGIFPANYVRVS
MFLISPPASPPPEFD showed an SPOT intensity of 0.
DLPLPDLPPEPPTEL gave an SPOT intensity of 0.
Work on VPPPMQPPPIESSNL yielded an SPOT intensity of 48.

Each binder was assayed against T18, Cyk3, Q07533 (assay: SPOT array). Conditions: median of control spots 1451.
T18 sequence (Q07533 1-83, looked up): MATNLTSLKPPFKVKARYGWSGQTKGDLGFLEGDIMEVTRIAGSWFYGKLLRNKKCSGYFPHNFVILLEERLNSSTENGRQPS
MFLISPPASPPPEFD showed an SPOT intensity of 1.
For DLPLPDLPPEPPTEL, the SPOT intensity was 0.
VPPPMQPPPIESSNL gave an SPOT intensity of 1.

The binders below were run against T19, Fus1, P11710 (assay: SPOT array). Conditions: median of control spots 1200.
T19 sequence (P11710 432-512, looked up): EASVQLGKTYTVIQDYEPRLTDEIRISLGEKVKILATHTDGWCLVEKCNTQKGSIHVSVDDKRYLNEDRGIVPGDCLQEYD
Work on MFLISPPASPPPEFD yielded an SPOT intensity of 0.
Work on DLPLPDLPPEPPTEL yielded an SPOT intensity of 0.
With VPPPMQPPPIESSNL the SPOT intensity was 1.

Each binder was assayed against T20, Lsb1, P53281 (assay: SPOT array). Conditions: median of control spots 388.
T20 sequence (P53281 45-122, looked up): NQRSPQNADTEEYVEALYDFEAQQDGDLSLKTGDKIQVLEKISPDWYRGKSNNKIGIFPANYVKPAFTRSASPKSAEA
For MFLISPPASPPPEFD, the SPOT intensity was 0.
DLPLPDLPPEPPTEL showed an SPOT intensity of 0.
Binder VPPPMQPPPIESSNL has an SPOT intensity of 99.

The binders below were run against T21, Abp1, P15891 (assay: SPOT array). Conditions: median of control spots 935.
T21 sequence (P15891 535-592, looked up): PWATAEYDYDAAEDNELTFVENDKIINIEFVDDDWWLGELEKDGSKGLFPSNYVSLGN
In the case of MFLISPPASPPPEFD, the SPOT intensity is reported as 0.
In the case of DLPLPDLPPEPPTEL, the SPOT intensity is reported as 0.
VPPPMQPPPIESSNL gave an SPOT intensity of 85.

The binders below were run against Myo3, P36006 (assay: SPOT array). Conditions: median of control spots 468.
MFLISPPASPPPEFD showed an SPOT intensity of 326.
For DLPLPDLPPEPPTEL, the SPOT intensity was 262.
VPPPMQPPPIESSNL showed an SPOT intensity of 318.
